# Source: US20240218057A1 (ROCKEFELLER UNIVERSITY, published 2024)
# Numbering of substitutions follows the chain as printed.
# B1: C542 (antibody, V domains shown)
# VH: EVQLVESGGGLVQPGGSLRLSCAASGLTVTSNYMSWVRQAPGRGLEWVSLIYPGGTTYYADSVKGRFTVSRDNSKNTLYLQMDSLRAEDTGVYYCARETLGRGGDCWGQGTLVTVSS
# VL: DIQMTQSPSSLSASVGDRVTITCQASQDISNFLNWYQQKPGKAPKLLIYDASNLETGVPSRFSGSRSGTDFTFTISSLQPDDIATYYCQQYDNLPRSFGQGTKLEIK
# B2: C045 (antibody, V domains shown)
# VH: EVQLVESGGGLVQPGGSLRLSCAASGFTFSTYSMNWVRQAPGKGLEWVSYISSSSSTIHYADSVKGRFTISRDNAKNSLYLQMNSLRDEDTAVYYCAREAHDGALTDYGDYLNWFDPWGQGTLVTVSS
# VL: SYELTQPPSVSVAPGKTARITCGGTNIGSKNVHWYQQKPGQAPVLVIYYDNDRPSGIPERFSGSNSGNTATLTISRVEAGDEADYYCQVWDTTSDHFYWVFGGGTKLTVL
# B3: C069 (antibody, V domains shown)
# VH: QVQLVQSGAEVKKPGSSVNVSCKASGGTFSTYAIHWVRQAPGQGLEWMGGIIPLFHTANYAQKFQGRVTITADESTSTAYMELSSLRSEDTAMYYCAINTQWDLVPRWGRGTLVTVSS
# VL: EIVLTQSPGTLSLAPGERATLSCRASQSVNSNYLAWYQQKPGQAPRLLIYGASSRATGIPDRFSGSGSGTDFTLTISRLEPEDFAVYYCQQYGFSLYSFGQGTKLEIK
# B4: C058 (antibody, V domains shown)
# VH: QVQLVQSGAEVKKPGASVKVSCKASGYIFTDYSMHWVRQAPGQGLEWIGWVNPNSGGTNYAQKFQGWVTMARDTSITTVYMELSRLKSDDTAVYFCARGPLFHRLVYDFWSGYHDGFDMWGQGTMVTVSS
# VL: QSALTQPASVSGSPGQSITISCTGTSSDVGGYKFVSWYQQHPGKAPKLMIYEVSNRPSGVSNRFSGSKSGNTASLTISGLQAEDEADYYCNSYTSSSTWVFGGGTKLTVL
# B5: C057 (antibody, V domains shown)
# VH: QVQLVQSGAEVKRPGASVKLSCKASGYIFTDYSIHWVRQAPGQGLEWMGWVNPNSGGGNSAQKFMDWVTMARDTSITTVYMELSRLRSDDTAVYYCARGPLFHKLVYDSWSGYHDGFDIWGQGTMVTVSS
# VL: B4 VL with G31A, K47Q, M49I, N91S, S95N, S96A, K106E
# B6: C059 (antibody)
# chain 1: QVQLVQSGAEVKKPGASIKVSCKASGYTFTDYSMHWVRQAPGQGLEWMGWINPNSGGTKYAQKFQGWVTMTRDMSITTVYMELTRLRSDATAVFYCARGPLFHKLVYDSWTGYHDGFDIWGQGTMVTVSS
# chain 2: B4 VL with K33N, F34Y, Q40H, H41Y, S54T, N55H, N91S, Y93S, S95N, L107M
# B7: C514 (antibody, V domains shown)
# VH: EVQLVESGGGLVQPGGSLRLSCAASEFIVTRNYMSWVRQAPGKGLEWVSLIYPGGSTFYADSVKGRFTISRDNSKNTLFLHMNSLRAEDTAVYYCARDLAGRLDYWGQGTLVTVSS
# VL: DIQMTQSPSSLSASVGDRVTITCQASQDINNFLNWYQQKPGKAPKLLIYDASNLETGVPSRFSGSGSGTDFTFTISSLQPEDIAIYYCQQYDSLSRLTFGGGTKVEIK
# B8: C062 (antibody, V domains shown)
# VH: EVQLVESGGGLVKPGGSLRLTCAASGFTFSTYSMNWVRQAPGKGLEWVSSISSSSSYIYYADSVKGRFTISRDNAKNSLYLQMNSLRAEDTAVYYCARERGYYGGKTPPFLGGQGTLVTVSS
# VL: NFMLTQPHSVSESPGKTVTISCTGSSGSIASNYVQWYQQRPGSAPTTVIYEDNQRPSGVPDRFSGSIDSSSNSASLTISGLKTEDEADYYCQSYDSSNYWVFGGGTKLTVL
# B9: C051 (antibody, V domains shown)
# VH: EVQLVESGGGLIQAGGSLRLSCAASGFGVRNNYMSWVRQAPGKGLEWVSVIYSGGTTYYADSVKGRFTISRDNSKNTVFLQMNSLRAEDTAVYYCAREGDVEGFSDLWSGYSRDRYYFDYWGQGTLVTVSS
# VL: QSALTQPASVSGSPGQSITFSCTGTSSDVGGYNYVSWYQQYPGKAPKLLIYDVTNRPSGVSDRFSGSKSGNTASLTISGLQAEDEADYYCSSFTSSNTRVFGTGTKVTVL
# B10: C050 (antibody, V domains shown)
# VH: EVQLVESGGGLFQPGGSLRLSCAASGFSVRNNYVSWVRQAPGKGLEWVSVIYSGGTTYYADSVKGRFTISRDISENTLYLQMNSLRAEDTAVYYCAREGDVEGLHDFWSGYSRDRYYFDYWGQGTLVTVSS
# VL: QSALTQPASVSGSPGQSIIISCTGTSGDIGGYNYVSWYQQHPGKAPKLMIYDVSFRPSGVSNRFSGSKSDNTASLTISGLQAEDEADYYCSSFTGNNTRVFGTGTKVTVL
# B11: C054 (antibody, V domains shown)
# VH: EVQLVESGGGLIQPGGSLRLSCAASGFTVSNNYMSWVRQAPGKGLEWVSVIYSGGSTYDADSVKGRFTISRDNSKNTLYLQMNSLSAEDTAVYYCAREGDVEGYYDFWSGYSRDRYYFDYWGQGTLVTVSS
# VL: B9 VL with F20I, Y41H, L49M, T54S, D62N, F93Y, N97S, T98A
# B12: C053 (antibody, V domains shown)
# VH: B11 VH with T28I, E46D, S56T, D59Y, S86R, Y105H, F107S
# VL: QSALTQPASVSGSPGQSITISCTGSSSDVGGYNFVSWYQQHPGRAPKLMIYDVSNRPSGVSNRFSGSKSGNTASLTISGLQVEDEADYYCSSYTNNNTRVFGTGTKVTVL
# B13: C052 (antibody, V domains shown)
# VH: B11 VH with Q13R, T28S, S56T, D59Y, T68N, L78V, S86R, T125A
# VL: B12 VL with S25T, F34Y, R44K, V82A, S91N, N95S
# B14: C080 (antibody, V domains shown)
# VH: EVQLVQSGAEVKKPGESLNISCKASGYSFTIYWIAWVRQLPGKGLEWMGIIYPGDSDTRYSPSFQGQVTISADKSISTAYLQWRSLKASDSAVYYCARGVAVDWYFDLWGRGTLVTVSS
# VL: QSVLTQPPSVSGAPGQRVTISCAGSSSNIGAGFDVYWYQQLPGTAPKLLIYGNNNRPSGVPDRFSGSKSGTSASLAITGLQAEDEADYYCQSSGSVLSDLYVFGTGTKVTVL
# B15: C518 (antibody, V domains shown)
# VH: EVQLVESGGGLIQPGGSLRLSCAASGITVSSNYMSWVRQAPGKGLEWVSVMYAGGSSFYADSVKGRFTISRDNSKNTLYLQMNSLRVEDTAVYYCARDLIALGVDVWGQGTTVTVSS
# VL: DIQLTQSPSFLSASVGDRVTITCRASQGISSYLAWYQQKPGKAPKLLIYAASTLQSGVPSRFSGSGSGTEFTLTISSLQPEDFATYYCQLLNSYPMCSFGQGTKLEIK
# B16: C539 (antibody, V domains shown)
# VH: EVQLVESGGGLVQPGRSLRLSCAASGFTFDDYALHWVRQAPGKGLEWVSGISWNGDSIGYADSVKGRFTISRDNAKNSLSLQMNSLTAEDTALYYCAKGVEYSSSSNCDYWGQGTLVTVSS
# VL: DIQMTQSPSSVSASVGDRVTITCRASQDISSWLAWYQQKPGKAPKLLISLASGLQSGVPSRFSGSGSETDFTLTISSLQPEDFATYYCQQTNSFPLTFGGGTKVEI
# B17: C521 (antibody, V domains shown)
# VH: EVQLVESGGGLVRPGGSLTLSCVASGFTVGSNFMSWVRQAPGKGLEWVSLIYNSGGTHYADSVKGRFTISRDRSKNTLYLQMNSLRAEDTAIYYCANHGYYYYMDVWGKGTTVTVS
# VL: QSALTQPASVSGSPGQSITISCTGTGSDIGAYNYVSWHQHHPGKAPKLIIYDVSNRPSGVSNRFSGSKSGNTASLTISGLQAEDEADYYCTSYTNTTTPWVFGGGTKVTVL
# B18: C088 (antibody, V domains shown)
# VH: QVQLVQSGAEAKKPGASVKVSCKTSGYTFTNYFMHWVRQAPGQGPEWMGIIDSSDGGASYAQKFQGRVTMTRDTSTSTVYMELRSLKFEDTAVYYCARASTSTTSWSDALSLGSWGQGTLVTVSS
# VL: QSVLTQPPSVSGAPGQRVTISCTGSSSNIGGGSVVHWYQQLPGTAPKLLIYANSNRPSGVPDRFSGSKSGTSASLAIAGLQAEDEADYYCQSWDNGLSASGVVFGGGTKLTVL
# B19: C094 (antibody, V domains shown)
# VH: QVQLQESGPGLVKPSETLSLTCNVSGVSISTDYWSWIRQPPGKGLEWIGYIYYSGNTKDYNPSLKSRVTISVDTSKNQFSLMLSSVTAADTAVYYCARHYDILTSLSWFDPWGQGTLVTVSS
# VL: QSVLTQPPSVSAAPGQKVTISCSITNSNLGNIYVSWYQQLPGTAPKLLIYGNNKRPSGIPDRFSGSKSGTSATLGITGLQTGDEAHYYCGTWDSSLSANWVFGGGTKLTVL
# B20: C513 (antibody, V domains shown)
# VH: EVQLLESGGGLVQPGGSLRLSCVASGFSFSTYAMSWVRQAPGQGLEWVSTITGTSIGTYYADSVKGRFTISRDNSKNTVFLQMKSLRAEDAAVYYCANHPLASGDEYYYYYMDVWGKGTTVTVSS
# VL: EIVLTQSPDTLSLSPGERATLSCRASQSVHSKQLAWYQQKPGQAPRLLIYGASSRATGIPDRFSGSGSGTDFTLTISRLEPEDFAVYYCQQYGSIRALTFGGGTKVEIK
# B21: C946 (antibody, V domains shown)
# VH: QVQLVQSGAEVKKPGASVKVSCKASGYTFTNYYIHWVRQAPGQGLEWMGIINPDGDSTSYVQKFQGRVTMTRDTSTSTVYMELSSLRSEDTAVYYCARDLVFVPATSAMDVWGKGTTVTVSS
# VL: EIVLTQSPATLSLSPGERATLSCRASQSVSSYLAWYQQKPGQAPRLLIYDASNRATGIPARFSGSGSGTDFTLTISSLEPEDFAVYYCQQRSNWLFTFGPGTKVDIK
# B22: C948 (antibody, V domains shown)
# VH: EVQLVESGGGLVQPGGSLRLSCAASGFTFSRYDMHWVRQATGKGLEWVSIIGTAGDTYYPGSVKGRFTISRDNAKNSLFLQMNSLRAGDTAVYYCARANYDSSGYHNWFDPWGQGTLVTVSS
# VL: DIQMTQSPSSLSASIGDRVTITCRASQNINSYLNWYQQKPGKAPKLLIYAASSLQSGVPSRFSGSGSGTDFTLTINSLQPEDFATYYCQQSYSMPSWTFGQGTKVEI
# B23: C947 (antibody, V domains shown)
# VH: QVQLQESGPGLVRPSGTLSLTCAVTGGSISSSDCWSWVRQPPGKGLEWIGEICHGRTSNYNPSLKSPVSISVDKSKNQFSLILSSVTAADKAVYYCARSSRFLPPLPDAFDLWGQGTMVTVSS
# VL: QSVLTQPPSVSGAPGQRVTISCTGSSSNIGAGYDVHWYKQLPGTAPKLLIYGNTNRPSGVPGRFSGSKSGTSASLAITGLQAEDEADYFCQSYDTRLSVVFGGGTKLT
# B24: C949 (antibody, V domains shown)
# VH: QVQLQESGPGLVKPLQTLSLTCTVSGGSISNGDYYWSWIRQSPGKGLEWIGNIFYSGATYFNPSLKSRVTLSVDTSKNQFSLKLSSVTAADTAVYYCARVVRVLPAASVDCWGQGTLVTVSS
# VL: QSALTQPRSVSGSPGQSVPISCTGTSSDVGGYDYVSWYQQHPGKAPKLIIYDVSERPSGVPDRFSGSKSGNTASLTISGLQAEDEATYYCCSYAGTSVMFGGGTKLTVL
# Target: SARS-COV-2 RBD (SARS-COV-2, UniProt P0DTC2 319-539)
# Assay: ELISA, RBD coated
row,Binder,EC50 [ng/mL]
1,B1,1.07
2,B2,7
3,B3,381
4,B4,2.28
5,B5,2.31
6,B6,1.88
7,B7,0.82
8,B8,4.69
9,B9,1.65
10,B10,193
11,B11,1.58
12,B12,1.53
13,B13,1.23
14,B14,1.97
15,B15,1.13
16,B16,1.3
17,B17,6.9
18,B18,2.44
19,B19,1.67
20,B20,1.31

# Target: T1, SARS-COV-2 RBD (SARS-COV-2, UniProt P0DTC2 319-539)
# T1 construct: also called WT RBD
# Assay: ELISA, RBD coated on plate
row,Binder,EC50 [ng/mL]
1,B21,3.82
2,B22,3.26
3,B23,2.08
4,B24,2.33
